The source of these data is publication PMC10404244, “Control of motor landing and processivity by the CAP-Gly domain in the KIF13B tail” (Nature Communications, 2023).

Series [1] addresses T1, tyrosinated microtubules polymerized from recombinant human α1A/βIII tubulin (human, UniProt Q71U36 1-451; Q13509 1-450).
T1 construct: human alpha-tubulin isotype α1A, fully tyrosinated; human beta-tubulin isotype βIII; Plasmids (pFAST-Dual) were gifts from A. Roll-Mecak; also called recombinant human tubulin (fully tyrosinated); not shown: His tag (from the HisTrap purification)
In words: TIRF microscopy microtubule-binding assay (standard deviation map); differentially labelled tyrosinated and detyrosinated taxol microtubules held by biotin-streptavidin in the same chamber, sfGFP motors in solution, 2 mM ATP, HP assay buffer pH 7.0. The note with it: both partners purified.

Series [2] concerns the molecule itself. In words: mass photometry; lower concentration(s) of the construct (KIF13B^Δtail: the lower of two; KIF13B^CG: low and intermediate), HP buffer pH 7.0, room temperature; monomer to dimer.
Series [3] deals with the molecule itself. The experiment in a line: two-colour single-molecule TIRF microscopy; sfGFP- and mScarlet (I)-tagged KIF13BK414A co-expressed and purified together (molar ratio ~1:5 mScarlet (I): sfGFP), seen on immobilised tyrosinated and CPA-treated detyrosinated microtubules; 2 mM ATP or 2 mM ADP.
Series [4] has as its target T2, tyrosinated microtubules polymerized from purified porcine brain tubulin (porcine, UniProt P02550 1-451); Q767L7 1-444, part of the tubulin labelled with biotin NHS ester and Dylight-405 (or Alexa647) NHS ester (chain and residues not told) | part of the tubulin labelled with biotin NHS ester and Dylight-405 (or …).
T2 construct: alpha-tubulin of porcine brain, mixture of isotypes and PTMs, approximately 50% tyrosinated; beta-tubulin of porcine brain, mixture of isotypes and PTMs; A polymer of alpha/beta-tubulin dimers, held on the coverslip through biotin-streptavidin; also called WT (tyrosinated) microtubules; tyrosinated MTs; source: purified from porcine brain (high-molarity PIPES procedure), polymerized with GTP, …
In words: TIRF microscopy microtubule-binding assay; KIF5B constructs on tyrosinated and detyrosinated microtubules in the presence of ADP (Supplementary Fig. 5G); read-out not told.

T1 sequence (Q71U36 whole entry, chain 1 of 2): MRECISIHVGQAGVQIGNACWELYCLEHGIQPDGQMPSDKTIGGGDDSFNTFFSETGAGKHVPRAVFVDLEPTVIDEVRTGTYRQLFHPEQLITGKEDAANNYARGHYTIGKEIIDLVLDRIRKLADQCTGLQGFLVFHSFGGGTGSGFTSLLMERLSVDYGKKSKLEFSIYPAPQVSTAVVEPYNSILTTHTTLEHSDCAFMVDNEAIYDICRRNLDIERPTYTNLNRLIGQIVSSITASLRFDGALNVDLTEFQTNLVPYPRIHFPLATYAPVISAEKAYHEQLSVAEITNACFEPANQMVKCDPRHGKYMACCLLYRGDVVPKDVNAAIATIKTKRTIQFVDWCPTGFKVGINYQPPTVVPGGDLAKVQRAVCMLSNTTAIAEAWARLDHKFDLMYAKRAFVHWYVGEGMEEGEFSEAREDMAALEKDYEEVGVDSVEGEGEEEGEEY
T1 sequence (Q13509 whole entry, chain 2 of 2): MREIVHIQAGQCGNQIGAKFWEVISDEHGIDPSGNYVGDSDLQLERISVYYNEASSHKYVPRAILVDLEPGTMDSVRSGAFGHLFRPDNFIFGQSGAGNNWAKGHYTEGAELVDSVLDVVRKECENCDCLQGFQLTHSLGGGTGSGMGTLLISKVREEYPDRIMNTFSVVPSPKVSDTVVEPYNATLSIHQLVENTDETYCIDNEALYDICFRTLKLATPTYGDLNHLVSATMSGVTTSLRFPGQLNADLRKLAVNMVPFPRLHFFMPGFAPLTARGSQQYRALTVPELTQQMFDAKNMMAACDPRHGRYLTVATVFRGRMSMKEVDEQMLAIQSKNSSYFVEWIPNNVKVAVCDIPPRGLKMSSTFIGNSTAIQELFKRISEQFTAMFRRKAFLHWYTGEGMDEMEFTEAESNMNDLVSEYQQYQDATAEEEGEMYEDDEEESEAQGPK

B1: human KIF13B tail-truncated (a.a. 1–679), C-terminal sfGFP-StrepII (domain or fragment, UniProt Q9NQT8 1-679, looked up)
chain: MGDSKVKVAVRIRPMNRRETDLHTKCVVDVDANKVILNPVNTNLSKGDARGQPKVFAYDHCFWSMDESVKEKYAGQDIVFKCLGENILQNAFDGYNACIFAYGQTGSGKSYTMMGTADQPGLIPRLCSGLFERTQKEENEEQSFKVEVSYMEIYNEKVRDLLDPKGSRQTLKVREHSVLGPYVDGLSKLAVTSYKDIESLMSEGNKSRTVAATNMNEESSRSHAVFKITLTHTLYDVKSGTSGEKVGKLSLVDLAGSERATKTGAAGDRLKEGSNINKSLTTLGLVISALADQSAGKNKNKFVPYRDSVLTWLLKDSLGGNSKTAMVATVSPAADNYDETLSTLRYADRAKHIVNHAVVNEDPNARIIRDLREEVEKLREQLTKAEAMKSPELKDRLEESEKLIQEMTVTWEEKLRKTEEIAQERQKQLESLGISLQSSGIKVGDDKCFLVNLNADPALNELLVYYLKEHTLIGSANSQDIQLCGMGILPEHCIIDITSEGQVMLTPQKNTRTFVNGSSVSSPIQLHHGDRILWGNNHFFRLNLPKKKKKAEREDEDQDPSMKNENSSEQLDVDGDSSSEVSSEVNFNYEYAQMEVTMKALGSNDPMQSILNSLEQQHEEEKRSALERQRLMYEHELEQLRRRLSPEKQNCRSMDRFSFHSPSAQQRLRQWAEEREATL
notes: KIF13B, human, a.a; 1–679; truncated after the predicted second coiled-coil, within the MBS domain; also called KIF13B^Δtail; KIF13^Δtail; source: Sf9 insect cells (baculovirus), purified (Strep-Tactin XT, gel filtration); not shown: sfGFP, C-terminal, kept
As to B1, the binding result in series [1] and in series [2] was “binds” each time.

B2: KIF13B K414A, full-length human KIF13B with the point mutation K414A, C-terminal sfGFP-StrepII (natural protein, UniProt Q9NQT8 1-1826, looked up)
chain: MGDSKVKVAVRIRPMNRRETDLHTKCVVDVDANKVILNPVNTNLSKGDARGQPKVFAYDHCFWSMDESVKEKYAGQDIVFKCLGENILQNAFDGYNACIFAYGQTGSGKSYTMMGTADQPGLIPRLCSGLFERTQKEENEEQSFKVEVSYMEIYNEKVRDLLDPKGSRQTLKVREHSVLGPYVDGLSKLAVTSYKDIESLMSEGNKSRTVAATNMNEESSRSHAVFKITLTHTLYDVKSGTSGEKVGKLSLVDLAGSERATKTGAAGDRLKEGSNINKSLTTLGLVISALADQSAGKNKNKFVPYRDSVLTWLLKDSLGGNSKTAMVATVSPAADNYDETLSTLRYADRAKHIVNHAVVNEDPNARIIRDLREEVEKLREQLTKAEAMKSPELKDRLEESEKLIQEMTVTWEEALRKTEEIAQERQKQLESLGISLQSSGIKVGDDKCFLVNLNADPALNELLVYYLKEHTLIGSANSQDIQLCGMGILPEHCIIDITSEGQVMLTPQKNTRTFVNGSSVSSPIQLHHGDRILWGNNHFFRLNLPKKKKKAEREDEDQDPSMKNENSSEQLDVDGDSSSEVSSEVNFNYEYAQMEVTMKALGSNDPMQSILNSLEQQHEEEKRSALERQRLMYEHELEQLRRRLSPEKQNCRSMDRFSFHSPSAQQRLRQWAEEREATLNNSLMRLREQIVKANLLVREANYIAEELDKRTEYKVTLQIPASSLDANRKRGSLLSEPAIQVRRKGKGKQIWSLEKLDNRLLDMRDLYQEWKECEEDNPVIRSYFKRADPFYDEQENHSLIGVANVFLESLFYDVKLQYAVPIINQKGEVAGRLHVEVMRLSGDVGERIAGGDEVAEVSFEKETQENKLVCMVKILQATGLPQHLSHFVFCKYSFWDQQEPVIVAPEVDTSSSSVSKEPHCMVVFDHCNEFSVNITEDFIEHLSEGALAIEVYGHKINDPRKNPALWDLGIIQAKTRSLRDRWSEVTRKLEFWVQILEQNENGEYCPVEVISAKDVPTGGIFQLRQGQSRRVQVEVKSVQESGTLPLMEECILSVGIGCVKVRPLRAPRTHETFHEEEEDMDSYQDRDLERLRRKWLNALTKRQEYLDQQLQKLVSKRDKTEDDADREAQLLEMRLTLTEERNAVMVPSAGSGIPGAPAEWTPVPGMETHIPVIFLDLNADDFSSQDNLDDPEAGGWDATLTGEEEEEFFELQIVKQHDGEVKAEASWDSAVHGCPQLSRGTPVDERLFLIVRVTVQLSHPADMQLVLRKRICVNVHGRQGFAQSLLKKMSHRSSIPGCGVTFEIVSNIPEDAQGVEEREALARMAANVENPASADSEAYIEKYLRSVLAVENLLTLDRLRQEVAVKEQLTGKGKLSRRSISSPNVNRLSGSRQDLIPSYSLGSNKGRWESQQDVSQTTVSRGIAPAPALSVSPQNNHSPDPGLSNLAASYLNPVKSFVPQMPKLLKSLFPVRDEKRGKRPSPLAHQPVPRIMVQSASPDIRVTRMEEAQPEMGPDVLVQTMGAPALKICDKPAKVPSPPPVIAVTAVTPAPEAQDGPPSPLSEASSGYFSHSVSTATLSDALGPGLDAAAPPGSMPTAPEAEPEAPISHPPPPTAVPAEEPPGPQQLVSPGRERPDLEAPAPGSPFRVRRVRASELRSFSRMLAGDPGCSPGAEGNAPAPGAGGQALASDSEEADEVPEWLREGEFVTVGAHKTGVVRYVGPADFQEGTWVGVELDLPSGKNDGSIGGKQYFRCNPGYGLLVRPSRVRRATGPVRRRSTGLRLGAPEARRSATLSGSATNLASLTAALAKADRSHKNPENRKSWAS
notes: kinesin KIF13B, human, full length, point mutant K414A; molar ratio about 1:5 (mScarlet (I): sfGFP); also called KIF13BK414A-sfGFP; HsKIF13BK414A-sfGFP-StrepII; source: Sf9, purified (Strep-Tactin XT, gel filtration); for the two-colour assay Sf9 co-infected with the sfGFP-StrepII and the mScarlet-StrepII viruses; not shown: sfGFP, C-terminal, kept
In the case of B2, in series [3], the binding result is on record as “binds”.

B3: chimeric KIF5B motor domain and stalk appended with the CAP-Gly domain from KIF13B (other)
chain: MADLAECNIKVMCRFRPLNESEVNRGDKYIAKFQGEDTVVIASKPYAFDRVFQSSTSQEQVYNDCAKKIVKDVLEGYNGTIFAYGQTSSGKTHTMEGKLHDPEGMGIIPRIVQDIFNYIYSMDENLEFHIKVSYFEIYLDKIRDLLDVSKTNLSVHEDKNRVPYVKGCTERFVCSPDEVMDTIDEGKSNRHVAVTNMNEHSSRSHSIFLINVKQENTQTEQKLSGKLYLVDLAGSEKVSKTGAEGAVLDEAKNINKSLSALGNVISALAEGSTYVPYRDSKMTRILQDSLGGNCRTTIVICCSPSSYNESETKSTLLFGQRAKTIKNTVCVNVELTAEQWKKKYEKEKEKNKILRNTIQWLENELNRWRNGETVPIDEQFDKEKANLEAFTVDKDITLTNDKPATAIGVIGNFTDAERRKCEEEIAKLYKQLDDKDEEINQQSQLVEKLKTQMLDQEELLASTRRDQDNMQAELNRLQAENDASKEEVKEVLQALEELAVNYDQKSQEVEDKTKEYELLSDELNQKSATLASIDAELQKLKEMTNHQKKRAAEMMASLLKDLAEIGIAVGNNDVKQPEGTGMIDEEFTVARLYISKMKSEVKTMVKRCKQLESTQTESNKKMEENEKELAACQLRISQHEAKIKSLTEYLQNVEQKKRQLEESVDALSEELVQLRAQEKVHEMEKEHLNKVQTANEVKQAVEQQIQSHRETHQKQISSLRDEVEAKAKLITDLQDQNQKMMLEQERLRVEHEKLKATDQEKSRKLHELTVMQDRREQARQDLKGLEETVAKELQTLHNLRKLFVQDLATRVKKSAEIDSDDTGGSAAQKQKISFLENNLEQLTKVHKQLVRDNADLRCELPKLEKRLRATAERVKALESALKEAKENASRDRKRYQQEVDRIKEAVRSKNMAQALASDSEEADEVPEWLREGEFVTVGAHKTGVVRYVGPADFQEGTWVGVELDLPSGKNDGSIGGKQYFRCNPGYGLLVRPSRVRRATGPVRRRSTGLRLGAPEARRSATLSGSATNLASLTAALAKADRSHKNPENRKSWAS
With B3, the “fold binding, tyrosinated over detyrosinated microtubules (ADP)” value in series [4] was around 16 fold.
